# Measurements reported in the supplement of paper PMC9170038.
# Test system: MS2 coat protein
# Assay: apparent KD of MS2 coat protein, switch OFF state (with FMN for OFF switches, without FMN for ON switches); designed switch direction (-1 OFF switch, 1 ON switch): -1; higher = weaker reporter binding
# Details: FMN input: 0 or 200 uM; Eterna round: R93 (includes R88 designs)
# Summary of the method: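 Illumina sequencing clusters were used for on-chip transcription of designed RNA switches. Titration with SNAP-549-labelled MS2 coat protein followed, in twofold steps from 0.7 or 1.5 nM to 3 µM in 100 mM Tris-HCl pH 7.5, 80 mM KCl, 4 mM MgCl2, without or with constant ligand. Apparent KD is each design's median of fits to normalised cluster binding curves.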
row,Sequence,apparent KD of MS2 coat protein [nM]
1,AAAAACGCAGGAUAUACAUGAGGAUCACCCAUGUAAAAAAAAAAAAAGGGAAAAAAAAGUAGAAGGGCGAAAAA [Menkhaure Snaaib],43.3
2,AAGAACUGAGGAUAUACACAAGAAAAGAAAAGAAAGAAAGAACAUGAGGAUCACCCAUGUAGAAGGCGGAAGAA [Merhotepre Sobekhotep V],26.5
3,AAGAAUGAAGGAUAUACAAGGAAGAAAGAAAAGAAAAGAAAACAUGAGGAUCACCCAUGUAGAAGGUCAUAGAA [EteRNA is fun!],26.3
4,AGAAUACAUGAGGAUCACCCAUGUGAGGAUAUGUGAAGAAAAAGAAAAGAAAAGAAACACAGAAGGCACAAAAG [EX 1 May 17],69.3
5,GGAAAGUCAGGAUAUGGAUAAUAAAUACAAAUAGAAACAAACCAGAAGGGACAUGAGGAUCACCCAUGUAAACA [Exclusion 4 Electric],22.6
6,AAACAACAUGAGGAUCACCCAUGUCAGGAUAUGAACGAAAUAAAAUAAAAAUAAAAGUUCAGAAGGGACGAAAA [Mat - Exclusion 1 - Eli mod - D18],50.1
7,AAUAAGUGAGGAUAUGGAAAUAAUAAAUAAAAUAAAAUAAACCAGAAGGCACAUGAGGAUCACCCAUGUAAAUA [JR_Exc004_Sub002],22
8,AAAAAGUCAGGAUAUCUGGAUAGGAAAAAGAAAACCUAUCCAGAGAAGGGACAUGAGGAUCACCCAUGUAAAAA [JL cataway mod 1],42.4
9,GUAAACCUAGGAUAUACAUGAGGAUCACCCAUGUAAAAAAUAAUAAAAAGAAAAAAAAGUAGAAGGAGGUAGAU [JR_Exc003_Sub1226],44
10,"AACUAGUCAGGAUAUACGAACAUGUCAAAAAACAUGAAGGGACAUGAGGAUCACCCAUGUAGAAGGGACUAGCA [74%, Web mod - With 3 less G's]",209
11,ACAGUUACAGGAUAUACAAGGAAAAAUAAAAAUAAAAUUCAACAUGAGGAUCACCCAUGUAGAAGGGUAACUGA [Ex2 Design 200: Random 15],32.1
12,AAAAAGUGAGGAUAUGCGCUGUGGAGUAGACACGACCAGUCGUAGAAGGCACAUGAGGAUCACCCAUGUUCAAA [EX4 Malc#21],25.3
13,GGUUGGCGAGGAUAUACAUGAGGAUCACCCAUGUGAGAGAAAAUAGUGAGAAAGAAAAGUAGAAGGCGCUGACG [salish99-ex3-42],235
14,AACAUGUUAGGAUAUAGAAGAAAAGAAAAGAAAGAAAAGAACUAGAAGGAACAUGAGGAUCACCCAUGUAAGAA [EteRNA is fun!],26.1
15,AAAAUGUCAGGAUAUGUACGAAAAAAUAAAAAAAUAAAAGUACAGAAGGGACAUGAGGAUCACCCAUGUCAGGG [EX4 392: Minimal 4],74.6
16,"AAAAAACAUGAGGAUCACCCAUGUCAGGAUAUGCUAUGGAAAAUAAAAAUAAAACAUAGCAGAAGGGACACCAA [64%, Meechl, 2]",58.1
17,AGUUGGCGAGGAUAUACAUGAGGAUCACCCAUGUGAGAGAAAAAAGUGAGAAAGAAAUGUAGAAGGCGCUCACA [JL Lego Mod 13],37.5
18,AAGAGUACAGGAUAUAUGUGAAAAGAGUCGAAAGACUCGGGACAUGAGGAUCACCCAUGUAGAAGGGUACUCAA [Diamond 75],79.7
19,"AAAGGAUCAGGAUAUGUGUGGAAAAAGUGUGUCCCAAAAAAACAUGAGGAUCACCCAUGUAGAAGGGAUCCAAA [Mod 5 of Normal (20/19) by Nando, Round 1]",97.8
20,CAGUACUGAGGAUAUACAUGAGGAUCACCCAUGUAUUCCAGCUAGGAAACUAGCAAAUGUAGAAGGCAGUACUG [Ex3: 825],14.8
21,AGAAAACAUGAGGAUCACCCAUGUAAGGAUAUGCUGAAAAACACGGAAAAAACGUGCAGCAGAAGGUACAAAGA [Mat - Exclusion 1 - Eli mod - D95],40.8
22,UAAAAACAUGAGGAUCACCCAUGUGAGGAUAUGUACGAAAUAAAUAAAAAAUAAAAGUACAGAAGGCACAAAAU [Mat - Exclusion 1 - Eli mod - D6],52.6
23,AGUCCAGAAGGAUAUACAUAGGUGAAAAAAAAAAAAAAACUACAUGAGGAUCACCCAUGUAGAAGGUCUGGACA [Mod of Brourd],25.5

row,Sequence,apparent KD of MS2 coat protein [nM]
1,ACCUGACAUGAGGAUCACCCAUGUCAGGAUAUGCAUCUUAGGAAAAAAAAACUAAGAUGCAGAAGGGACAUGGG [Design 2: Super Stable 2],27.5
2,GAAAAGCAAGGAUAUACAUGAGGAUCACCCAUGUGGAAUGGCGUGACCGAAAGAAAAGGUAGAAGGUGCACGUG [Ragetia],286
3,AGCUAGUGAGGAUAUACGAACAUGUCAAAAGACGUGAAGGAACAUGAGGAUCACCCAUGUAGAAGGCACUAGCA [Mat - Exclusion 2 - JL-Eli mod - D54],14.6
4,UAUGAGCGAGGAUAUGCUUGGGACUGUCGGAAGGUGGCGGGACAUGAGGAUCACCCAUGUAGAAGGCGCGAGCG [Harteesian Tree],67.4
5,AACAGUACAGGAUAUACAUGAGGAUCACCCAUGUCACAGAAAUAAAACAAAAAUAAAAGUAGAAGGGUACUGGA [Ruby 41],36.7
6,AGCUAGUCAGGAUAUACAAACAUGUCAAAAGACGUGAAGGGACAUGAGGAUCACCCAUGUAGAAGGGACUAGCA [Web Mod 74% 2],217
7,AUAGGCCUAGGAUAUACAUGAGGAUCACCCAUGUAAACCGAUAGAUCACGGUAAACGUGUAGAAGGAGGAAUAA [JR_Exc003_Sub207],20.6
8,AAAAGGAUAGGAUAUACAUGAGGAUCACCCAUGUUUAUAAAUAAAAGAAAUAAAGAAAGUAGAAGGGUCAAGAA [LROPPY Exclusion 3 - v07_deltaG=3.4],22.4
9,AUAGGCCUAGGAUAUACAUGAGGAUCACCCAUGUAAAUAAAUCGAUCAAAAUAAACGUGUAGAAGGAGGAAUAA [JR_Exc003_Sub205],38.3
10,GAAGAACAUGAGGAUCACCCAUGUGAGGAUAUACAGAAUGGAAUAAAAUAACAAGAAAGUAGAAGGCACAAGAA [Ex 1 May 39],38.4
11,AAAACUGGAGGAUAUACGAACAUGUCAAAAGACGUGAAGGGACAUGAGGAUCACCCAUGUAGAAGGCUAGAAAA [JL Stem Breaker 10],34.2
12,AACAGUACAGGAUAUACAUGAGGAUCACCCAUGUGAGAGAAAUAAAACAAAAAUAAAAGUAGAAGGGUACUGAA [Mat - Exclusion 3 - Eli mod - D67],36
13,AAAAAACAUGAGGAUCACCCAUGUGAGGAUAUGAAAUUACUAAGACAACUGUAAUCAAUCAGAAGGCACAACAA [JR_Exc--1_Sub1207],38.6
14,AGCUAGAGAGGAUAUACAUGGAAAAAAAAAGUCUGAUCCCUACAUGAGGAUCACCCAUGUAGAAGGCUCUGGCA [Ex2 Design 158: Sub-opt 22],13
15,AACAGUACAGGAUAUACAUGAGGAUCACCCAUGUCACAAUUAAGCAGCGUAACACAAAGUAGAAGGGUAAUGGA [Ruby 17],31.1
16,AACAGUACAGGAUAUACAUGAGGAUCACCCAUGUGAAUAAAUAGUGGCGUACCACAAAGUAGAAGGGUACUGGA [Mat - Exclusion 3 - JL mod - D25],136
17,"AGCAAGUCAGGAUAUACGAACAAGACAAAAGACGAGAAGGGACAUGAGGAUCACCCAUGUAGAAGGGACAAGCA [74%, Web mod - With 5 less U's]",60.8
18,CUUGUGUGAGGAUAUGUAAAAUGAAUAAGCAGUUCUAAAAGGCAGAAGGUACAUGAGGAUCACCCAUGUGAAAA [Inza],49.8
19,AUAAAUCGAGGAUAUACAUGAGGAUCACCCAUGUAAAUAAAUAAAUAAUCCUCAGGAAGUAGAAGGCGAAAUAA [JR_Exc003_Sub019],27.2
20,AAAGGACGAGGAUAUACAUGAGGAUCACCCAUGUAAGAAGCAUAAUAAAAUAACUUAUGUAGAAGGCGUCCAAA [Mat - Exclusion 3 - Eli mod - D94],69
21,GGAAAACAUGAGGAUCACCCAUGUAAGGAUAUGCAAAAAAAAAAAGGAUAUAGAAGGAGCAGAAGGUACAAAGG [salish99-ex1-29],57
22,AAGAGUACAGGAUAUAUGUGAAAAGAGUCGAAAGACUCAAAACAUGAGGAUCACCCAUGUAGAAGGGUACUCAA [Diamond 74],27.3
